How the values were obtained:
Assay type in all cases: biochemical
[1] = GGR reduction of geranyl pyrophosphate; set-up: key to GPP (C10) reduction: +: activity detected; ++: activity higher than for other GGRs
[2] = In vitro GGR reduction of farnesol, products analysed by GC-MS; set-up: key to Farnesol (C15) reduction / Farnesol (C15)-full reduction: +: activity detected; ++: activity higher than for other GGRs
Method: Validation of enzymatic substrate reduction was determined by incubating all assays in […] buffer containing 30-150 μM enzyme, 200 µM FAD (Sigma-Aldrich), and 65 mM sodium dithionite (Sigma-Aldrich). Standard assays for alcohol reduction were incubated with 100 μM enzyme and 500 μM (E,E)-farnesol (Alfa-Aesar) or (E,E,E)-geranylgeraniol (Sigma-Aldrich); pyrophosphate assays were performed at 100 μM FPP or GGPP (Sigma-Aldrich). Alcohol-based assays were quenched by liquid extraction using a 3:1 (v:v) LC-grade ethyl acetate solution containing 100 μM dodecanol as a GC internal standard (Sigma-Aldrich). The organic layer was extracted and stored at −20° C. until analysis by GC-MS. Pyrophosphate assays were similarly quenched using LC-grade n-butanol (Sigma-Aldrich) 1:1 (v:v) and centrifuged at 15000×g for 2 minutes. The n-butanol layer was dried for 45 minutes at ambient temperature using a Labconco speedvac, reconstituted in 25 µL of a 62:38 (v:v) acetonitrile/50 mM ammonium carbonate solution, and stored at −20° C. until further analysis by LC-MS-TOF [33]. Characterization of enzymatic hydrolysis of isoprenoid pyrophosphate substrates by SaGGR and PfGGR was performed by quenching the enzyme reactions at 0, 2, 5, 10, 20, 40, and 60 minutes of incubation.
(§1) Product identification and quantification of farnesol and hydrofarnesol derivatives were modified from previous detection methods. All GC-MS analyses were determined using an Agilent 6890 gas chromatography instrument coupled to an Agilent 5973 mass selective detector. 1 µL of extracted samples were injected in splitless mode onto an Agilent CycloSil-B column, with helium used as a carrier gas flowing at 1.0 mL/min. Following injection, the oven was held at 50° C. for 30 seconds, then increased to 175° C. at 35° C./min. Farnesol and hydrofarnesols were resolved by increasing the temperature 4° C./min up to 200° C., then increased to 300° C. at a rate of 35° C./min where it was held for 1.5 minutes. Geranylgeraniol and its hydrogenated derivatives were analyzed using the same injection method. After injection, the oven was held at 50° C. for 30 seconds then increased to 235° C. at 35° C./min. Hydrogeranylgeraniols were separated by increasing the oven temperature 4° C./min to 250° C., then ramped to 300° C. at a rate of 35° C./min where it was held for 1.5 minutes.
(§2) The EI-MS detection was initiated after a solvent delay of 5.0 minutes. Detection and classification of hydrofarnesols was performed in scan mode at 9.8 scans/sec ranging from 50-250 m/z in positive ion mode. For geranylgeraniol, the same scan parameters were implemented except for the mass range, which was expanded to 50-300 m/z in positive ion mode. The electron multiplier voltage was set to a gain factor of 1, with the MS ion source and quadrupole set to 230° C. and 150° C., respectively.
(§3) Total ion chromatograms (TIC) were integrated using Agilent Technologies Masshunter software, version 6. Product formation was determined from the TIC area for C15 or C20 alcohol products eluting at each respective retention time. Absolute product concentrations were determined from standard curves (0-200 μM) of either farnesol or geranylgeraniol assuming the TIC area of each reduced product ionizes with an equivalent efficiency to that of the unreduced substrate (FIG. 10). Subsequently, enzyme turnover numbers for isoprenoid reduction were calculated as the total number of nanomoles of prenyl units reduced per milligram of enzyme in 1 hr.

[3] = GGR-mediated hydrolysis of prenyl pyrophosphates to monophosphates, time course by LC-MS-TOF; details: standard assay as a function of time, 0-60 minutes
Method: Validation of enzymatic substrate reduction was determined by incubating all assays in triplicate for each respective substrate and putative GGR for 1 hour at 37° C. All assays were performed at pH 7.4 in 100 mM sodium phosphate buffer containing 30-150 μM enzyme, 200 µM FAD (Sigma-Aldrich), and 65 mM sodium dithionite (Sigma-Aldrich). Standard assays for alcohol reduction were incubated with 100 μM enzyme and 500 μM (E,E)-farnesol (Alfa-Aesar) or (E,E,E)-geranylgeraniol (Sigma-Aldrich); pyrophosphate assays were performed at 100 μM FPP or GGPP (Sigma-Aldrich). […]
(§4) Data acquisition and processing were performed by the Agilent Technologies MassHunter software package. Product formation was determined using extracted ion chromatogram abundances (±0.02 Da) for each molecule's [M-H]^− mass (Table 4). […] Relative reductase reactivity among GGRs was determined by measuring the fractional abundance of singly-, doubly-, or triply-reduced products to the total ion abundance present for intact and hydrolyzed moieties. Integrated areas for hydrolyzed monophosphate products were assumed to have the same ionization intensities as their pyrophosphate counterparts, as determined by their standard curves measured from 0-120 μM (FIG. 15).

[4] = In vitro GGR reduction of farnesyl pyrophosphate, products detected by LC-MS-TOF; set-up: key to FPP (C15) reduction: +: activity detected; ++: activity higher than for other GGRs
Method: […] […] Standard assays for alcohol reduction were incubated with 100 μM enzyme and 500 μM (E,E)-farnesol (Alfa-Aesar) or (E,E,E)-geranylgeraniol (Sigma-Aldrich); pyrophosphate assays were performed at 100 μM FPP or GGPP (Sigma-Aldrich). Alcohol-based assays were quenched by liquid extraction using a 3:1 (v:v) LC-grade ethyl acetate solution containing 100 μM dodecanol as a GC internal standard (Sigma-Aldrich). The organic layer was extracted and stored at −20° C. until analysis by GC-MS. Pyrophosphate assays were similarly quenched using LC-grade n-butanol (Sigma-Aldrich) 1:1 (v:v) and centrifuged at 15000×g for 2 minutes. The n-butanol layer was dried for 45 minutes at ambient temperature using a Labconco speedvac, reconstituted in 25 µL of a 62:38 (v:v) acetonitrile/50 mM ammonium carbonate solution, and stored at −20° C. until further analysis by LC-MS-TOF [33]. Characterization of enzymatic hydrolysis of isoprenoid pyrophosphate substrates by SaGGR and PfGGR was performed by quenching the enzyme reactions at 0, 2, 5, 10, 20, 40, and 60 minutes of incubation.
(§5) The separation of FPP, GGPP, and their reduced forms was conducted on a ZIC-pHILIC column (150 mm length, 2.1 mm internal diameter, and 5 μm particle size, Merck) using an Agilent Technologies 1200 Series Rapid Resolution high performance liquid chromatography (HPLC) system. Solvents for HPLC were purchased from HoneyWell and were of HPLC grade or higher. The mobile phases used for this analysis were A) 50 mM ammonium carbonate (Fluka, 30-33% NH3 basis) in water and B) acetonitrile. Analytes were eluted isocratically with a mobile phase composition of 62% B at a flow rate of 0.2 mL/min. The total run time of the method was 6.5 min. The temperature of the sample tray was maintained at 6° C. using an Agilent FC/ALS Thermostat. The column compartment was set to 40° C. A sample injection volume of 2 μL was used throughout.
The HPLC system was coupled to an Agilent Technologies 6210 time-of-flight mass spectrometer (LC-TOF-MS) by a ⅓post-column split. Contact between both instrument set-ups was established using a LAN card in order to trigger the MS into operation upon the initiation of a run cycle from the MassHunter workstation (Agilent Technologies). Electrospray ionization (ESI) was conducted in the negative ion mode and a capillary voltage of −3500 V was utilized. MS experiments were carried out in full scan mode, at 0.86 spectra/second for the detection of [M-H]^− ions. The instrument was tuned for a range of 50-1700 m/z. Prior to LC-TOF-MS analysis, the TOF-MS was calibrated via an ESI-L low concentration tuning mix (Agilent Technologies).
as §4

[5] = In vitro GGR reduction of geranylgeranyl pyrophosphate, products detected by LC-MS-TOF; set-up: key to GGPP (C20) reduction: +: activity detected; ++: activity higher than for other GGRs
Method: (§6) Validation of enzymatic substrate reduction was determined by incubating all assays in triplicate for each respective substrate and putative GGR for 1 hour at 37° C. All assays were performed at pH 7.4 in 100 mM sodium phosphate buffer containing 30-150 μM enzyme, 200 µM FAD (Sigma-Aldrich), and 65 mM sodium dithionite (Sigma-Aldrich). Standard assays for alcohol reduction were incubated with 100 μM enzyme and 500 μM (E,E)-farnesol (Alfa-Aesar) or (E,E,E)-geranylgeraniol (Sigma-Aldrich); pyrophosphate assays were performed at 100 μM FPP or GGPP (Sigma-Aldrich). Alcohol-based assays were quenched by liquid extraction using a 3:1 (v:v) LC-grade ethyl acetate solution containing 100 μM dodecanol as a GC internal standard (Sigma-Aldrich). The organic layer was extracted and stored at −20° C. until analysis by GC-MS. Pyrophosphate assays were similarly quenched using LC-grade n-butanol (Sigma-Aldrich) 1:1 (v:v) and centrifuged at 15000×g for 2 minutes. The n-butanol layer was dried for 45 minutes at ambient temperature using a Labconco speedvac, reconstituted in 25 µL of a 62:38 (v:v) acetonitrile/50 mM ammonium carbonate solution, and stored at −20° C. until further analysis by LC-MS-TOF [33]. Characterization of enzymatic hydrolysis of isoprenoid pyrophosphate substrates by SaGGR and PfGGR was performed by quenching the enzyme reactions at 0, 2, 5, 10, 20, 40, and 60 minutes of incubation.
as §5, with “The column compartment was set to 40° C. A sample injection volume of 2 μL was used throughout.” left out
as §4

[6] = In vitro GGR reduction of geranylgeraniol, products analysed by GC-MS; set-up: key to Geranylgeraniol (C20) reduction: +: activity detected; ++: activity higher than for other GGRs
Method: as §6, §1, §2, §3

[7] = GGR reduction of geraniol; details: FIG. 1A legend, conditions not stated
[8] = FIG. 1A legend, conditions not stated
[9] = 1 hr, 37° C., pH 7.4, error in brackets

B1: Sa-GGR: geranylgeranyl reductase from Sulfolobus acidocaldarius, InterPro M1I414, wild type (protein, listed as Sulfolobus acidocaldarius)
chain: MKELKYDVLIIGGGFAGSSAAYQLSRRGLKILLVDSKPWNRIGDKPCGDAVSKAHFDKLGMPYPKGEELENKINGIKLYSPDMQTVWTVNGEGFELNAPLYNQRVLKEAQDRGVEIWDLTTAMKPIFEDGYVKGAVLFNRRTNEELTVYSKVVVEATGYSRSFRSKLPPELPITEDLDDKDADVAYREVLLTKEDIEDHDYLRIFIDQETSPGGYWWYFPKGKNKVNVGLGIQGGMGYPSIHEYYKKYLDKYAPDVDKSKLLVKGGALVPTRRPLYTMAWNGIIVIGDSGFTVNPVHGGGKGSAMISGYCAAKAILSAFETGDFSASGLWDMNICYVNEYGAKQASLDIFRRFLQKLSNDDINYGMKKKIIKEEDLLEASEKGDLHLSVADKAMRVISGLGRPSLLFKLKAVAESMKKIKELYLNYPRSPSSLGSWRREVDNVLTEFNKSLS
- GPP (C10) reduction [1]: +
- Product of GPP reduction [1, 8]: H2-GPP
- Farnesol (C15) reduction [2]: +
- Farnesol (C15)-full reduction [2]: +
- Formation of fully reduced farnesol ([2]; 50° C. and pH 5.5): generated a modest amount of H6-FOH
- Reduced products formed from farnesol ([2]; 1 hour 37° C., pH 7.4): H2- and H4-farnesol
- Reduction of FOH to H2-FOH or H4-FOH (in words) ([2]; 1 hr incubation under standard assay conditions): found to reduce FOH
- Specific activity of enzymatic GGR reduction on farnesol (FOH) [2, 9]: 8 (1) nmol terpene units reduced mg^−1 enzyme hr^−1
- Product of complete reduction of farnesol [2, 8]: H6-FOH
- Rate of first-order substrate hydrolysis, comparison [3]: occurs more quickly in SaGGR than for PfGGR
- FPP (C15) reduction [4]: +
- Product of FPP reduction [4, 8]: H4-FPP
- Preferential / final product of FPP reduction ([4]; SaGGR variants, pH 5.5, 50° C., kinetic time course): H4-FPP
- FPP consumption ([4]; after two hours of incubation at pH 5.5, 50° C.): fully consume FPP
- Reduction of FPP (in words) ([4]; standard assay conditions): could reduce FPP
- GGPP (C20) reduction [5]: +
- Product of GGPP reduction [5, 8]: H6-GGPP
- Geranylgeraniol (C20) reduction [6]: +
- Reduced products formed from geranylgeraniol ([6]; 1 hour 37° C., pH 7.4): H2-, H4-, H6- and H8-geranylgeraniol
- Specific activity of enzymatic GGR reduction on geranylgeraniol (GGOH) [6, 9]: 50 (10) nmol terpene units reduced mg^−1 enzyme hr^−1
- Product of complete reduction of geranylgeraniol [6, 8]: H8-GGOH
- Enzymatic reduction of geranylgeraniol (in words) ([6]; standard assay, 1 hr, 37° C., pH 7.4): enzymatically reduce geranylgeraniol
- Specific activity toward GGOH ([6]; standard assay, stated as lower bound): at least 50±10 nmol terpenoids reduced per milligram of enzyme per hour
- Product of complete reduction of geraniol [7]: H4-GOH

B2: Ma1-GGR: geranylgeranyl reductase from Methanosarcina acetivorans #1, InterPro Q8TQQ6 (protein, UniProt Q8TQQ6 1-407, looked up)
Digeranylgeranylglycerophospho …: MKDIYDVLVIGAGPAGSIAAKTAAEKGLDVLLIEKRQEIGDPVRCAEGVNKEYLKKHVEIDNSWICADLKGSRIYSPNGTKVEMAEEISGGEVGYVLERKIFDRALAEHAAKAGAEVRVKTRATGLIIEDDFVKGARLMNLGKEYEVRAKIVIGADGVESKVGRWAGIDTSLKPIDIETCAQYLIAGADIDPEYCEFYIGNEIAPGGYVWIFPKGEGKANVGVGILGNRTGKFKPRPVDYLNNFVEKKFPNAKIVEMVFGGVPVSGSIEKTSVNGLMLVGDAARQSDPITGGGILNAMDAGKIAGEAAYEAISSGDVSLEKLEEVYEKRWRETTGHDIDMSLIVKNCFINLKDEDLDSLADSLKEVKFESMRLFDLLQALFKANKKLLWDLRVLFKDAAKEVMKNRT
- GGPP (C20) reduction [5]: +
- Reduction of GGPP (in words) ([5]; standard assay conditions): found to reduce GGPP
